Key:
RBP7910 WT [1] = target: T1, RBP7910 WT (Trypanosoma brucei, UniProt Q38AH3 9-189); test: EMSA; details: RBB50: 20 mM Tris-HCl pH 7.6, 50 mM KCl, 5 mM MgCl2, 100 mg/mL BSA (so in the source), 10% glycerol, 1 mM DTT, plus 100 mM KCl and 20 U RNasin, 20 ul, 30 min, RT …
T1 sequence: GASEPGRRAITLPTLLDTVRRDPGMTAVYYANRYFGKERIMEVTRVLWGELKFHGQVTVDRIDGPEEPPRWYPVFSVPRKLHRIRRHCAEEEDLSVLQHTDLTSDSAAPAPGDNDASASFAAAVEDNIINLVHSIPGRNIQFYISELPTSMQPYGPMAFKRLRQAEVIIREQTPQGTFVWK

RBP7910 WT [2] = target: T1, RBP7910 WT; test: competition; details: RBB50: 20 mM Tris-HCl pH 7.6, 50 mM KCl, 5 mM MgCl2, 100 mg/mL BSA (so in the source), 10% glycerol, 1 mM DTT, plus 100 mM KCl and 20 U RNasin; 20 ul, 30 min, RT …
[3] = target: T2, RBP7910 WT (Trypanosoma brucei) (UniProt Q38AH3); test: competition; details: RBB50: 20 mM Tris-HCl pH 7.6, 50 mM KCl, 5 mM MgCl2, 100 mg/mL BSA (so in the source), 10% glycerol, 1 mM DTT, plus 100 mM KCl and 20 U RNasin, 20 ul, 30 min, RT …
T2 sequence: T1 sequence

RBP7910 WT [4] = target: T1, RBP7910 WT; test: EMSA; 1 nM labeled RNA, protein titration; specificity confirmed with unlabeled poly AU; RBB50: 20 mM Tris-HCl pH 7.6, 50 mM KCl, 5 mM MgCl2, 100 mg/mL BSA (so in the source), 10% glycerol, 1 mM DTT, plus 100 mM KCl and 20 U RNasin; 20 ul, 30 min, RT; native 10% TBE gel at 4 C; details: protein: recombinant; tags: N-terminal 6xHis (pET30-a); label: 32P
RBP7910 WT [5] = target: T1, RBP7910 WT; test: competition; vs labeled gA6[14]; RBB50: 20 mM Tris-HCl pH 7.6, 50 mM KCl, 5 mM MgCl2, 100 mg/mL BSA (so in the source), 10% glycerol, 1 mM DTT, plus 100 mM KCl and 20 U RNasin; 20 ul, 30 min, RT; native 10% TBE gel at 4 C; details: protein: recombinant; tags: N-terminal 6xHis (pET30-a); label: unlabeled; one predicted stem-loop, 3' oligo(U) tail
RBP7910 WT [6] = target: T1, RBP7910 WT; test: EMSA; 95% CI 1.25-1.97; RBB50: 20 mM Tris-HCl pH 7.6, 50 mM KCl, 5 mM MgCl2, 100 mg/mL BSA (so in the source), 10% glycerol, 1 mM DTT, plus 100 mM KCl and 20 U RNasin; 20 ul, 30 min, RT; native 10% TBE gel at 4 C; details: protein: recombinant; tags: N-terminal 6xHis (pET30-a); label: 32P (UTP body or 3' pCp)

## CYb pre-edited mRNA
RBP7910 WT [1]; 95% CI 2.09-3.66
  Kd: 2.78 nM
RBP7910 WT [2]
  binding signal (% reduction of bound labeled gA6[14]): 50

## GGGAUUAAAAGACAAUGUGAAUUUCUUAAGGUAAUAAAGGGAAUAAUUUUUUUUUUUUUUUU [natural CYb gRNA (gCYb[558]) with U-tail]
[3]
  binding signal (% reduction of bound labeled gA6[14]): 50

## GGGGGGACUGACAUUAAAAGAAAUGUGAAUUUUUCUCCGCUUUU [42-mer CYb gRNA (gCYb[558] USD-2A-42nt), no U-tail]
[3]; scale: fold less efficient competitor than natural gCYb
  binding signal: 10

## gA6[14] (delta16G) gRNA with U-tail
RBP7910 WT [1]; 95% CI 0.18-0.27
  Kd: 0.21 nM

## poly U RNA
RBP7910 WT [2]
  binding signal (% reduction of bound labeled poly AU): 50

B1: poly AU RNA (ssRNA)
RNA: GGGAUUCUUUUCGAGUCUCUUUUAUUUAUUUAUUUAUUUAUUUUUUCUCUCUUAUU
RBP7910 WT [4]
  binding result: binds

B2: uridylated non-guide RNA (49 nt) (structured_RNA)
RNA: GGGUACCAGAUACAUACUAAGGAAUUCGAUAUCACUAUUUUUUUUUUUUUU
RBP7910 WT [5]
  binding signal: 10 fold less efficient competitor than gA6[14]

B3: CYb edited mRNA (ssRNA)
RNA: GGGAAAUAUGUUUUUUCGUGUUAGAUUUUUGUUAUUUUUUUUAUUAUUUAGAAAUUUAUGUUGUCUUUUUA
RBP7910 WT [6]
  Kd: 1.57 ± 0.06 nM

From article PMC6459835, “The RNA binding activity of the first identified trypanosome protein with Z-DNA-binding domains”
